# T1: full-length human IL-36R on cells (human, UniProt Q9HB29 20-575)
# T1 sequence (looked up): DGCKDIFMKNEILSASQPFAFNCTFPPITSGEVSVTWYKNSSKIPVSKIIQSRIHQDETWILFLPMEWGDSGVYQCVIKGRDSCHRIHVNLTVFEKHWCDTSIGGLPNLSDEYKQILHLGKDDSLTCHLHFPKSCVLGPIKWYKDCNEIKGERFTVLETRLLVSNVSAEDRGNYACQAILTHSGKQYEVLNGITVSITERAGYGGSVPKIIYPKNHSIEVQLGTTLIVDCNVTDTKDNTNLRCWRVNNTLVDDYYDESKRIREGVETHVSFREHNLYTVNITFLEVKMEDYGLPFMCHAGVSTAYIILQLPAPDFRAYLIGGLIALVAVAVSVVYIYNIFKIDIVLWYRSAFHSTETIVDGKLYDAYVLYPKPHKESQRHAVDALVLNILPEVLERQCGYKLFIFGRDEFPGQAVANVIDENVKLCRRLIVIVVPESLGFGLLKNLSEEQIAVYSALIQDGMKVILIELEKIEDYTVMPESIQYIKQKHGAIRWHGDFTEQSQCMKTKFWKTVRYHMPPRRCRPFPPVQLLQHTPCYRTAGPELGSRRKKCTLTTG
# T2: Macaca fascicularis IL-36R on cells (Macaca fascicularis, UniProt A0A2K5WSK9 20-558)
# T2 sequence: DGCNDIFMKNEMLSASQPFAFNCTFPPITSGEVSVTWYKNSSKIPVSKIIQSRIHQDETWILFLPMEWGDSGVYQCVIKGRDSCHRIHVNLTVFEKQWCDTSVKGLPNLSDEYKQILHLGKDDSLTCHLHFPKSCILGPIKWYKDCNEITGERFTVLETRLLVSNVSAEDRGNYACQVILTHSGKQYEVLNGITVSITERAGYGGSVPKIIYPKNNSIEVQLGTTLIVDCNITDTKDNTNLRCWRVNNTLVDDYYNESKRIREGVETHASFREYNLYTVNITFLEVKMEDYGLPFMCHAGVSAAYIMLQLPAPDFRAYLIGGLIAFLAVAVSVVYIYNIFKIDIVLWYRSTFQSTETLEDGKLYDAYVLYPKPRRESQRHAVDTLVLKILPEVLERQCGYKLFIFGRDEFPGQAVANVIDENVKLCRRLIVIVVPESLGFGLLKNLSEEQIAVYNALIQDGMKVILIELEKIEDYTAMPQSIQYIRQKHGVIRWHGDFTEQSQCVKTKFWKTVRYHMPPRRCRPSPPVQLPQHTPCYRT
# What was measured:
# [1] = biological target: T1, full-length human IL-36R on cells; assay: cell-based or functional assay
# [2] = biological target: T3, recombinant human IL-36R extracellular domain expressed with a C-terminal myc-myc-hexahistidine tag (human, UniProt Q9HB29 20-337); assay: SPR (Biacore 4000), mAb captured on anti-human Fc, 37°C
# T3 construct: also called hIL-36R-MMH; hIL-36R.mmH
# Description: (§1) Equilibrium dissociation constants (KD values) for IL-36R binding to purified anti-IL-36R antibodies were determined using a real-time surface plasmon resonance biosensor using a Biacore 4000 instrument. The Biacore sensor surface was first derivatized by amine coupling with a monoclonal mouse anti-human Fc antibody (GE, # BR-1008-39) to capture anti-IL-36R monoclonal antibodies. All binding studies were performed in 0.01 M Hepes pH 7.4, 0.15 M NaCl, 3 mM EDTA, and 0.05% v/v Surfactant Tween-20 (HBS-ET running buffer) at 25° C. and 37° C. Different concentrations of IL-36R reagents, human IL-36R extracellular domain expressed with a C-terminal myc-myc-hexahistidine tag (hIL-36R-MMH), Macaca fascicularis IL-36R extracellular domain expressed with a C-terminal myc-myc-hexahistidine tag (mfIL-36R-MMH: mROR1 signal sequence (M1-A29). Macaca fascicularis IL36R_ecto domain (D20-A336).mycmycHis6), human IL-36R extracellular domain expressed with a C-terminal mouse IgG2a Fc tag (hIL-36R-mFc: mROR1 signal sequence (M1-A29)-human IL36R (D20-Y337)-mouse IgG2aFc (E98-K330)) or an in-line fusion protein of human IL-36R extracellular domain and IL1RAcP extracellular domain expressed with mouse IgG2a Fc tag (hIL-36R-Trap-mFc: mROR1 signal sequence (M1-A29)-human IL36R ecto domain (D20-Y337)-human IL1RacP ecto domain(S21-E359)-mouse IgG2aFc) in HBS-ET running buffer (ranging from 100 nM to 3.7 nM, 3-fold dilutions) were injected over the anti-IL-36R antibody captured surface for 4 minutes at a flow rate of 30 μL/minute and their dissociation in HBS-ET running buffer was monitored for 10 minutes. Kinetic association rate constant (kₐ) and dissociation rate constant (kd) were determined by fitting the real-time sensorgrams to a 1:1 binding model using Scrubber 2.0c curve fitting software. Binding dissociation equilibrium constants (KD) and dissociative half-lives (t_{1/2}) were calculated from the kinetic rate constants as: […]
# [3] = biological target: T2, Macaca fascicularis IL-36R on cells; assay: cell-based or functional assay
# [4] = biological target: T3, recombinant human IL-36R extracellular …; assay: SPR (Biacore 4000), mAb captured on anti-human Fc, 25°C
# Description: as §1
"IC50 [M], NFκB-luciferase, 10 pM hIL-36γ [1]","IC50 [M], NFκB-luciferase, 20 pM hIL-36α [1]","Max Inhibition (%), NFκB-luciferase, 10 pM hIL-36γ [1]","Max Inhibition (%), NFκB-luciferase, 20 pM hIL-36α [1]",100 nM hIL-36R-MMH Bound (RU) [2],Kd [2],koff [2],kon [2],t½ [2],"IC50 [M], NFκB-luciferase, 300 pM hIL-36γ [3]","IC50 [M], NFκB-luciferase, 500 pM hIL-36α [3]","IC50 [M], NFκB-luciferase, 600 pM hIL-36β [3]","Max Inhibition (%), NFκB-luciferase, 300 pM hIL-36γ [3]","Max Inhibition (%), NFκB-luciferase, 500 pM hIL-36α [3]","Max Inhibition (%), NFκB-luciferase, 600 pM hIL-36β [3]",100 nM hIL-36R-MMH Bound (RU) [4],Kd [4],koff [4],kon [4],t½ [4],Binder,also measured
7.3e-10 M,7.8e-10 M,99%,99%,81 RU,7.11 nM,0.000971 s⁻¹,137000 M⁻¹ s⁻¹,12 min,5.4e-09 M,3.1e-09 M,7.1e-09 M,75%,84%,78%,54 RU,3.72 nM,0.000343 s⁻¹,92200 M⁻¹ s⁻¹,34 min,"H4H14731P (antibody, human IgG4 S228P, kappa, V domains shown) VH: QLQLQESGPGLVKPSETLSLTCTVSGGSISSSNYYWGWIRQPPGKRLEWIGSIYYSGSTYYNPSLKTRVTISVDTSKNQFSLKLTSVTAADTAVYYCAREEAAALTHFDFWGQGTLVTVSS VL: DIQMTQSPSSLSASVGDRVTITCRASQSISNYLNWYQQKPGKAPKLLIFAASSLQSGVPSRFSGSGSGTDFTLTISSLQPEDFATYYCQHSHSSHPITFGQGTRLEIKR","IC50 [M], NFκB-luciferase, 15 pM hIL-36β [1]: 9.4e-10 M; Max Inhibition (%), NFκB-luciferase, 15 pM hIL-36β [1]: 99%"
7e-10 M,4.9e-10 M,49%,99%,83 RU,23 nM,0.00208 s⁻¹,90600 M⁻¹ s⁻¹,6 min,> 1e-07 M,,> 1e-07 M,43%,,48%,61 RU,6.11 nM,0.000415 s⁻¹,67900 M⁻¹ s⁻¹,28 min,"H4H14760P2 (antibody, human IgG4 S228P, kappa, V domains shown) VH: QVQLVESGGGVVQPGKSLRLSCAASGFTFSNYGIHWVRQAPGKGLEWVAIILYDGSNQHYADSVKGRFTISRDNSKNTLYLQMNNLRAEDTAVYYCARDLDLWSGYYTNGDGMDVWGQGTTVTVSS VL: not shown",

# The next lines start with the binder.
Binder,"IC50 [M], NFκB-luciferase, 10 pM hIL-36γ [1]","IC50 [M], NFκB-luciferase, 20 pM hIL-36α [1]","Max Inhibition (%), NFκB-luciferase, 10 pM hIL-36γ [1]","Max Inhibition (%), NFκB-luciferase, 20 pM hIL-36α [1]",100 nM hIL-36R-MMH Bound (RU) [2],Kd [2],koff [2],kon [2],t½ [2],"IC50 [M], NFκB-luciferase, 300 pM hIL-36γ [3]","IC50 [M], NFκB-luciferase, 500 pM hIL-36α [3]","IC50 [M], NFκB-luciferase, 600 pM hIL-36β [3]","Max Inhibition (%), NFκB-luciferase, 300 pM hIL-36γ [3]","Max Inhibition (%), NFκB-luciferase, 500 pM hIL-36α [3]","Max Inhibition (%), NFκB-luciferase, 600 pM hIL-36β [3]",100 nM hIL-36R-MMH Bound (RU) [4],Kd [4],koff [4],kon [4],t½ [4],also measured
"H4H14732P2 (antibody, human IgG4 S228P, kappa, V domains shown) VH: EVQLVESGGGLVQPGRSLRLSCAASGFTFDDYAMHWVRQAPGKGLEWVSGINWAGYNIDYADSVKGRFTISRDNAKNSLYLQMNSLRAEDTALYYCAKDMRGFSYGFPFDYWGQGTLVTVSS VL: not shown",> 1e-08 M,> 1e-08 M,69%,61%,34 RU,27.6 nM,0.00116 s⁻¹,42100 M⁻¹ s⁻¹,10 min,> 1e-07 M,> 1e-07 M,> 1e-07 M,36%,47%,43%,26 RU,13.9 nM,0.000569 s⁻¹,41000 M⁻¹ s⁻¹,20 min,"IC50 [M], NFκB-luciferase, 15 pM hIL-36β [1]: > 1e-08 M; Max Inhibition (%), NFκB-luciferase, 15 pM hIL-36β [1]: 69%"
"H4H14757P (antibody, human IgG4 S228P, kappa, V domains shown) VH: EVQLVESGGGLVQPGRSLRLSCTASGFTFDDYAMHWVRQAPGKGLEWVSGIRWNGGSIGYVDSVKGRFTISRDNAKKSLHLQMNSLKTEDTALYYCAKDIGDILTGFYGEYGMDVWGQGTTVTVSS VL: DIQMTQSPSSLSASEGDRVTITCRASQSISSYLNWYQQKAGKAPNLLIYAASSLQSGVPSRFSGSGSGTEYTLTISSLQPEDFATYYCQQSYIIPYTFGQGTKLEIKR",1.3e-10 M,1.8e-10 M,87%,101%,129 RU,5.18 nM,0.00109 s⁻¹,210000 M⁻¹ s⁻¹,11 min,> 1e-07 M,> 1e-07 M,> 1e-07 M,25%,29%,36%,94 RU,2.18 nM,0.000396 s⁻¹,182000 M⁻¹ s⁻¹,29 min,
